Assay results published in IntAct's records for PubMed 21880730.

B1: Nectin-3 (Mus musculus), Q9JLB9 (parent)
chain: MARTPGPAPLCPGGGKAQLSSAFPPAAGLLLPAPTPPPLLLLLIPLLLFSRLCGALAGSIIVEPHVTAVWGKNVSLKCLIEVNETITQISWEKIHGKSTQTVAVHHPQYGFSVQGDYQGRVLFKNYSLNDATITLHNIGFSDSGKYICKAVTFPLGNAQSSTTVTVLVEPTVSLIKGPDSLIDGGNETVAAVCVAATGKPVAQIDWEGDLGEMESSTTSFPNETATIVSQYKLFPTRFARGRRITCVVKHPALEKDIRYSFILDIQYAPEVSVTGYDGNWFVGRKGVNLKCNADANPPPFKSVWSRLDGQWPDGLLASDNTLHFVHPLTVNYSGVYVCKVSNSLGQRSDQKVIYISDPPTTTTLQPTVQWHSSPADVQDIATEHKKLPFPLSTLATLKDDTIGTIIASVVGGALFLVLVSILAGVFCYRRRRTFRGDYFAKNYIPPSDMQKESQIDVLHQDELDSYPDSVKKENKNPVNNLIRKDYLEEPEKTQWNNVENLTRFERPMDYYEDLKMGMKFVSDERYNESEDGLVSHVDGSVISRREWYV

Variants of: B1
Conditions: with afad_rat Afdn

effect of a mutation on the interaction | Variant
decreasing interaction | F153L
